Data: article PMC6990647

Molecular target: hUNG2 N-terminal domain (NTD) (Homo sapiens, UniProt P13051 1-92)
Test: fluorescence anisotropy

Sequence of hUNG2 N-terminal domain (NTD) (P13051 1-92): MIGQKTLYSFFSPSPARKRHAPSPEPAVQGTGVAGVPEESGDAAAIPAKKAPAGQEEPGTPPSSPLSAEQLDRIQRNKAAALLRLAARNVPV

GCTCTGTACATGAGCAGTG (ssDNA) [NS19FAM ssDNA]
Kd: 23 µM

B1: NS19FAM duplex (dsDNA)
DNA 1: GCTCTGTACATGAGCAGTG
DNA 2: CACTGCTCATGTACAGAGC
Kd: 10 µM
